Data as given in PMC9456106, “PET Probes for Preclinical Imaging of GRPR-Positive Prostate Cancer: Comparative Preclinical Study of [^68Ga]Ga-NODAGA-AMBA and [^44Sc]Sc-NODAGA-AMBA” (International Journal of Molecular Sciences, 2022).

Tests used:
[1] = Ex-vivo biodistribution in healthy control mice; set-up: species or system CB17 SCID mice; settings: i.v.; for accumulation in the adrenal glands / accumulation in the kidneys / accumulation in the pancreas / accumulation in the urine: 30-180 min, approx.; for radiotracer uptake in blood, liver, spleen, gastrointestinal tract and thoracic organs: each investigated time point
Method: (§1) Thirty, 60, 120, and 180 min after the intravenous injection of 11.3 ± 1.4 MBq [^68Ga]Ga-NODAGA-AMBA or [^44Sc]Sc-NODAGA-AMBA healthy control and PC-3 tumor-bearing mice were euthanized with 5% Forane, sacrificed, and tissue samples were taken from the selected organs. The weight and the radioactivities of both the tumors and normal tissues were measured with calibrated gamma counter, and the uptake was expressed as %ID/g tissue.

[2] = Octanol/water partition coefficient (logP); format: physicochemical; settings: 1-octanol/water, triplicates
Method: For the determination of LogP value and the in-vitro serum stability, the same protocol was used as was described earlier by our research group. Briefly, for the determination of the partition coefficient (logP), 10 µL of [^68Ga]Ga-NODAGA-AMBA or [^44Sc]Sc-NODAGA-AMBA solution (approximately 5 MBq) was mixed with 500 µL of 1-octanol and 490 µL of water in a test tube. To reach equilibrium state, the mixture was firmly stirred and then centrifuged (20.000 rpm, 5 min). One-hundred microliters of the samples were pipetted into vials from each layer, and the radioactivity of the fractions was determined with a calibrated gamma counter (Perkin-Elmer Packard Cobra, Waltham, MA, USA). The measurements were performed in triplicates for both labelled compounds.

PC-3 tumors = experiment: Ex-vivo biodistribution of PC-3 tumor-bearing mice; format: in vivo, CB17 SCID mice; settings: for accumulation in PC3 tumors, blocked: 15 mg/kg BBN blocking, 15 mg/kg
Method: For animal experiments, 12-week-old female CB17 SCID (n = 64) were used. For the induction of GRPR-expressing tumor model, mice were anesthetized with a dedicated small animal anesthesia device (Tec3 Isoflurane Vaporizer, Eickemeyer Veterinary Equipment, Sunbury-on-Thames, UK) applying 3% isoflurane (Forane, AbbVie), 0.4 L/min O2, and 1.4 L/min N2O, and 5 × 10^6 PC-3 tumor cells in 0.9% NaCl (100 µL) were injected subcutaneously into the left shoulder area of CB17 SCID mice. In-vivo and ex-vivo experiments were carried out 14 ± 1 days after subcutaneous injection of tumor cells at the tumor volume of approximately 86 mm^3.
as §1
For blocking experiments, PC-3 tumor-bearing mice were injected intravenously with 15 mg/kg of BBN (Sigma-Aldrich) 30 min prior to the injection of 11.3 ± 1.4 MBq [^68Ga]Ga-NODAGA-AMBA or [^44Sc]Sc-NODAGA-AMBA and in-vivo and ex-vivo organ distribution studies were performed as described above.

[3] = In-vivo stability by analytical radio-HPLC of blood samples; set-up: species or system CB17 SCID mice; settings: healthy mice, samples at 30, 60, 120, 180 min
Method: (§2) For pharmacokinetic studies, healthy control CB17 SCID mice (n = 12) were injected intravenously with 10.8 ± 1.6 MBq of [^68Ga]Ga-NODAGA-AMBA or [^44Sc]Sc-NODAGA-AMBA under isoflurane anesthesia. Thereafter, approximately 30 μL blood samples were collected from the saphenous vein into a capillary tube at the following time points: 30, 60, 120, and 180 minutes. The volume of the blood was determined using a digital caliper. Blood samples were placed in a γ-counter and the radioactivity of each sample was measured. Results were expressed as a percentage of the injected activity per mL (% ID/mL). For the determination of in vivo serum stability of [^68Ga]Ga-NODAGA-AMBA and [^44Sc]Sc-NODAGA-AMBA, blood samples were taken from the mice at the previously mentioned time points (30, 60, 120, and 180 min). Firstly, the blood samples were centrifuged at 4°C, 10,000 rpm for 5 min. Thereafter, 50 μL samples were taken from the supernatant and mixed with ice-cold abs. ethanol (50 μL) and centrifuged again at 4°C, 10 000 rpm for 5 min. The supernatants were analyzed by analytical radio-HPLC. In all cases, the radio-HPLC chromatograms were compared to the original chromatograms of the radiotracers to find any metabolite forms.

[4] = In-vitro stability in mouse plasma, Na2EDTA and oxalic acid (radio-HPLC); format: in vitro ADME; settings: mixed with mouse plasma, oxalic acid
Method: For in-vitro stability measurements, the labelled compounds were mixed with mouse plasma, Na2EDTA, and oxalic acid. Samples were injected at different time points to the HPLC with and without a column.
After 15 and 90 min incubation time, a 50 µL sample was taken and 50 µL abs. EtOH was added to the aliquots. Then, the samples were centrifuged (20.000 rpm, 5 min), and the supernatant was removed and diluted with the eluent of HPLC. This was followed by the performance of the analytical measurements.

[5] = Pharmacokinetics (blood clearance) in healthy control mice; format: in vivo; settings: healthy control CB17 SCID mice, i.v.
Method: as §2

Structure (SMILES)	accumulation in the adrenal glands [1]	accumulation in the kidneys [1]	accumulation in the pancreas [1]	accumulation in the urine [1]	radiotracer uptake in blood, liver, spleen, gastrointestinal tract and thoracic organs [1]	octanol/water partition coefficient (logP) [2]	accumulation in PC3 tumors, blocked (PC-3 tumors; 60 min)	accumulation in PC3 tumors (PC-3 tumors; 60 min after i.v. injection)	accumulation in PC3 tumors, blocked (PC-3 tumors; 120 min)	accumulation in PC3 tumors (PC-3 tumors; 120 min after i.v. injection)	in-vivo stability [3]	RCP, in-vitro stability ([4]; 15 min)	RCP, in-vitro stability ([4]; 90 min)	half-life in the blood [5]
CSCC[C@H](NC(=O)[C@H](CC(C)C)NC(=O)[C@H](Cc1c[nH]cn1)NC(=O)CNC(=O)[C@@H](NC(=O)[C@H](C)NC(=O)[C@H](Cc1c[nH]c2ccccc12)NC(=O)[C@H](CCC(N)=O)NC(=O)c1ccc(NC(=O)CNC(=O)CCC(C(=O)O)N2CCN(CC(=O)O)CCN(CC(=O)O)CC2)cc1)C(C)C)C(N)=O (stereo partly shown) [[^44Sc]Sc-NODAGA-AMBA] [metal not drawn]	0.5–3 %ID/g	2–8 %ID/g	1–4 %ID/g	250–450 %ID/g	Low radiotracer uptake	−2.81 ± 0.14	0.79 ± 0.16 %ID/g	4.56 ± 0.45 %ID/g	0.69 ± 0.17 %ID/g	4.14 ± 0.47 %ID/g	remained stable	over 98%	over 98%	less than 30 minutes
CSCC[C@H](NC(=O)[C@H](CC(C)C)NC(=O)[C@H](Cc1c[nH]cn1)NC(=O)CNC(=O)[C@@H](NC(=O)[C@H](C)NC(=O)[C@H](Cc1c[nH]c2ccccc12)NC(=O)[C@H](CCC(N)=O)NC(=O)c1ccc(NC(=O)CNC(=O)CCC(C(=O)O)N2CCN(CC(=O)O)CCN(CC(=O)O)CC2)cc1)C(C)C)C(N)=O (stereo partly shown) [[^68Ga]Ga-NODAGA-AMBA] [metal not drawn]	0.5–3 %ID/g	2–8 %ID/g	1–4 %ID/g	250–450 %ID/g	Low radiotracer uptake	−2.75 ± 0.18	0.60 ± 0.22 %ID/g	3.78 ± 0.93 %ID/g	0.48 ± 0.14 %ID/g	3.29 ± 1.20 %ID/g	remained stable	approximately 92%	approximately 85%	less than 30 minutes
